From the nanobody polyreactivity screen of Harvey et al. (2022)

Experiment: yeast display, Sf9 membrane polyspecificity reagent, FACS + sequencing; frameworks hold sequencing errors
In short: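 Genes from sorted yeast were amplified by colony PCR, read by MiSeq 2 × 250 sequencing and filtered on CDR length. These cells carried a synthetic nanobody library in Saccharomyces cerevisiae BJ5465 and were sorted by FACS into low and high (top ~1%) gates on anti-HA and streptavidin fluorescence. Polyreactivity is labelled according to the gate of origin.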
For “QVQLVESGGGLVQAGGSLRLSCAASGSIFYTYTMGWYRQAPGKERELVAAISRGGRTYYADSVKGRFTISRDNAKNTVYLQMNSLKPEDTAVYYCAAYGYGSWGQGTQVTVSS”, the “polyreactivity (PSR sort gate)” value was “high polyreactivity”.
For “QVQLVESGGGLVQAGGSLRLSCAASGRTFRNYAMGWYRQAPGKERELVAGITYSGGSTFYADSVKGRFTISRDNAKNTVYLQMNSLKPEDAAVYYCAAVYVPYYWLGRSRGLDYWGQGTQVTVSS”, the “polyreactivity (PSR sort gate)” value was “high polyreactivity”.
With “QVQLVETGGGLVQAGGSLRLSCAPSGRTFGPYAMGWYRQAPGKERELVAAIRVRGASTYYADSVKVRFTISRDNEKNTVYLQMNSLKPEDTEVYYCAATLSYYVGVRYDYWGQGTQVTVSS” the “polyreactivity (PSR sort gate)” value was “high polyreactivity”.
For “QVQLLESGGGLVQAGGSLRLSCAASGRTFHFNAMGWYRKAPWKERELVAAITNSGGRTSYADSVKGRFTISRDNAKNTVYLQMNSLKPEDTAVYYCNVEVTYSSGKYDYWGQGTQVTVSS”, the “polyreactivity (PSR sort gate)” value was “low polyreactivity”.
For “QVQLVESGAGLFQAGGSLRLSCAASGFTFWWYAMGWYRQAPGKQRELVASISSGGSTNYADSVKGRFTISRDNANNTVYLQMNSLKQVDTAVFYCARRMLYSERYSARWQYVYWGQGTQVNVSS”, the “polyreactivity (PSR sort gate)” value was “high polyreactivity”.
In the case of “QVQLVESGGGLDQAGGSLRLSCAASGSIFGSYAMGWNTPAPGKERELVAAISVSGGSTYYADSVKGRFTISRYNAKNTVYLQMNSLKPEDTAVYYCAADWQELEYDYWGQGTQVTVSS”, the “polyreactivity (PSR sort gate)” value is reported as “low polyreactivity”.
With “QVQLVESGGGLVQAGGSLRISCAASGRTFGANAMGWYRQAPGKERELVAGITSSGGSTSYADSVKGRFTISRDNAKNTVYLQMNSLKPEDTAVYYCAKDVYQHIFDVILGGYDSWGLGTQVTVSS” the “polyreactivity (PSR sort gate)” value was “low polyreactivity”.
For “QVQLVESGGGLVQAGGSLRLSCAPSGSIFVYYAMGWYIQAPGKERELVAAITTSGGSTYYADSVKGRFTISRDNAKNTVYLQMNSLKPEDTAVYYCAAELLAWYWSFSVPCPYDYWGQGTQVTVSS”, the “polyreactivity (PSR sort gate)” value was “low polyreactivity”.
With “QVQLVESGGGLVQEGGSLRLSCAASGRTSNINAMGWYRQAPGKERELVAAINSDGSTYYAYSVKGRFTISRDNAKNTVYLQMNSLKPEDTAVYYCAAVSLFRDSQFDYWGQGTQVTVSS” the “polyreactivity (PSR sort gate)” value was “low polyreactivity”.
For “QVQLVESGGGLVQAGGSLRLSCAASGFTFDVNAMGWYRQAPGKERELVATISSNGGSTYYADSVKGRFTISRDNAKNTVYLQMNSLKPEDTAVYYCAADVYRLLRRYRYYYWGQGTQVTVSS”, the “polyreactivity (PSR sort gate)” value was “low polyreactivity”.
In the case of “QVQLVESGGGLVQAGGSLSLSCPASGFTFPPYTMGWSRQAPGKEREFVATITKSGGSTYYADSVKGRFTISRDNAKNTVYLQMNSLKPEDTAVYYCNVVWQYSTYVRYNYWGQGTQVTVSS”, the “polyreactivity (PSR sort gate)” value is reported as “low polyreactivity”.
With “QVQLVESVGGLVQAGGSLRLSCAASGLTFNHYAMGWYRQAPGKEMELVAAISKSGSSTYYADSVKGRFTISRDNAKNTVYLQMNSLKPEDTAVYYCAARSWDPALYDYWGQGTQVTVSS” the “polyreactivity (PSR sort gate)” value was “high polyreactivity”.
With “QVQLVESGGGLVQAGGSLRLSCAASGRIFLVNAMGWYRQAPGKERELVAAINFISGSTYYADSVKGRFTISRDNAKNTVYLQMNSLKPEDTAVYYCAAYSYWSYVQRYKLEYDYWGQGTQVTVSS” the “polyreactivity (PSR sort gate)” value was “low polyreactivity”.
In the case of “QVQLVESGGGLFQAGRSLRISCAASGFIFSQNTMGWYRQAPGKEWELVAAISKSRGTTYYADSVKGRYTITRDNAKNTVYLQMYSLKPEDTAVYYCAARIQWPTWSLYYYWGQGTQVTVSS”, the “polyreactivity (PSR sort gate)” value is reported as “high polyreactivity”.
With “QVQLEESGGGLVQAGGSLRLSCAASGSIFGLYAMGWYRQAPGKERELVAAINQSGGSTSYADSVKGRFTISRDNAKNTVYLQMNSLKPEDTAVYYCNRVRLNTEGFDYWGQGTQVTVSS” the “polyreactivity (PSR sort gate)” value was “low polyreactivity”.
In the case of “QVQLVESGGGLVQAGGSLRLSCAASGSTYAAKTMGWYRQAPGKERELVAAITVRGGSTYYADSVKGRFTISRDNAKNTVYLQMNSLKPEDTAVYYCATRHPARRDYWGQGTQVTVSS”, the “polyreactivity (PSR sort gate)” value is reported as “low polyreactivity”.
With “QVQLVESGGGVVQAGGSLRLSCAASGSTISPYAMGWYRPAPGKERELVAAISSGGSTSYADSVKGRFTISRDNAKNTVYLQMNSLKPEDTAVYYCHASSPGEVPVYDYDYWGQGTQVTVSS” the “polyreactivity (PSR sort gate)” value was “low polyreactivity”.
With “QVQLVESGGGLVQAGGSLRLSCAPSGRIFGAYGMGWYRQAPGKERELVAAISNGGRTSYADSVKGRFTISRDNAKNTVYLQLNSVKPEDTAVYYCAAVYWPWFGAYDYWGHGTQVTVSS” the “polyreactivity (PSR sort gate)” value was “high polyreactivity”.
With “QVQLVESGGGLVQAGGSLRLSCAASGITSRPYVMGGYRQAPGKERELVAAISLTGGRTYYADSVKGRFTISRDNAKNTVYLQMNSLKPEDTAVYYCAAKYSNGSGFDYWGQGTQVTVSS” the “polyreactivity (PSR sort gate)” value was “high polyreactivity”.
For “QVQLVESGGGLVQAGGSLRLSCAASGFIFYRYAMGWYRQAPGKERELVATIRYSGGSTYYADSVKGRFTISRDNAKNTVYLQMNSLKPEDTAVYYCNARRRHPSVSRPPYDYWGQGTQVTVSS”, the “polyreactivity (PSR sort gate)” value was “high polyreactivity”.
With “QVLLQESGGGLVQAGGSLRLGCAASGTISPAYYMGRYHHAPGKEREFVAAITYGTNTYYADSVKGRFTISRDNAKNTVNLQMNSLKPADTAVYYCSATAGYNGAHDYWGQGTQVTVSS” the “polyreactivity (PSR sort gate)” value was “low polyreactivity”.
For “QVQLVESGGGLVQAGGSLRLSCAASGYIFKSNVMGWYRQAPGKERELVAAITTDGSTYYADSVKGRFTISRDNAKNTVYLQMNSLKPEDTAVYYCAAGKAYWYARKPYARYYYWGQGTQVTVSS”, the “polyreactivity (PSR sort gate)” value was “high polyreactivity”.
With “QVQLVESGGGLVQAGGSLRFSCAASGFIFGDYAMGWDRQAPGTEREFVATISRSVGSRSYADSVKGRFTISRDNAKKPVYLQMNSLKPEDTAVYYCAAVTWGEGFDYWGQGTQVTVSA” the “polyreactivity (PSR sort gate)” value was “low polyreactivity”.
With “QVQLVESGGGLVQAGGSLRLSCAASGFTFGRYAMGWYRQAPGKEREFVAGITWSGGSTSYADSVKGRFTISRDNAKNTVYLQMNSLKREDTAVYYSATRARYTRVHGRRYAYDYWGQGTQVTVSS” the “polyreactivity (PSR sort gate)” value was “high polyreactivity”.
With “QVQLVESGGGLVQAGGSLRLTCAASGSIFTFYAMGWYRQAPGKERELVADISFSDVSTYYADSVKGRFTISRDNAKNTVYLQMNSLKPEDTAVYYCAARPYVVSQYFDGVEFYYWGQGTQVTVSS” the “polyreactivity (PSR sort gate)” value was “low polyreactivity”.
With “LVQLQDSGDGLVQAGGSLRLSCAASGNIFDADIKGWYRQAPGKERELVASIGIGGTTYYADSVKGRFSISRDNEKNTVYLQMNSLKPEDTAVYYCAARYLYYAYSYWGQGTQVTVSS” the “polyreactivity (PSR sort gate)” value was “low polyreactivity”.
For “QVQLVESGGGLVQAGGSLRLSCADSGNTFYVDTMGWYREAPGKESELVAAIYSTGDRTYYADSLKGRFTISRYKAKNTVYLQMNRLKPEDTAVYYWAARLYRGSLGYYFWGQVTQVTVSS”, the “polyreactivity (PSR sort gate)” value was “high polyreactivity”.
In the case of “QVQLVESGGGLVQAGGSLRLSCAASGRTFTVYAMGWYRQAPGKEREFVAAITERGGSTYYADSVKGRFTISRDNAKNTVYLQMNSLKPEDTAVYYCAAVYYWRPGWYVRFDYWGHGTQVTVSS”, the “polyreactivity (PSR sort gate)” value is reported as “low polyreactivity”.
In the case of “QDQLVESGGGLVQAGGSLRLSCAASGNTFRYYALGGYRQAPGKERELVATITSGGRTYYADSVKGRFTISRDNAKNTVYLQMNSLKPEDTAVHYGAAVGLDYFVGEYDYWGQGTQVTVSS”, the “polyreactivity (PSR sort gate)” value is reported as “low polyreactivity”.
In the case of “QVQLVESSGGLVQAGGSLRLSCAASGSTFALYAMGRYSQAPGKERELVAAITASGGSTYYADSVKGRLTISRDIAKKTVDLQMNSLKAEDTAVYYCATGRTKRYLYPPGYWGQGTQVTVSS”, the “polyreactivity (PSR sort gate)” value is reported as “high polyreactivity”.
In the case of “QVQLVESGGGLVQAGGSLRLSCAASGSTFGYYAMGWYRQAHGKERELVAAITSGGSTNYADSVKGRFTISRDNAKNTVYLQMNSLKPEDTAVYYCAAADSYRYHLRRYNYWGQGTQVTVSS”, the “polyreactivity (PSR sort gate)” value is reported as “low polyreactivity”.
In the case of “QVQLVESGGGLVQAGGSLRLSCAASGSTFARYAMGWYRQAPGKERELVAAISRSGSNTYYADSVKGRFTISRDNAKNTVYLQMNSLKPEDTAVYYCAAVQPGQRTVAYDYWGQGTQVTVSS”, the “polyreactivity (PSR sort gate)” value is reported as “high polyreactivity”.
For “QVQVVESGGGLVHAVCSLRLSCAASGRIFSTYALGLYRPAPGKERELVAAISSSGARTYYADSVKGRFTISRDNAKNNVYLQMNSLKPEDTSVYYCAAPPYNRPGYGYDYWGQGTQVTVSS”, the “polyreactivity (PSR sort gate)” value was “high polyreactivity”.
For “QVQLVESGGGLVQAGGSLRLSCAASGRTFNAYTLGWYTQAPGTERELVAAITSSGGNTYNADSVKGRFTISRDNAKNTVYLQMNSLKPEETAVYYCNTVYLYGTHDYWGQGTQVTVSS”, the “polyreactivity (PSR sort gate)” value was “low polyreactivity”.
For “QVQLVESGGGLVQAGGSLRLSCAASGSNFGYNAIGWYRKAPGKEREFVAGISWSGGRTYYADSEKGRFTISRDNAKNTVYLQMNSLKPEDTAVYYCAAPSRPAPRFDYWGQGTQVTVSS”, the “polyreactivity (PSR sort gate)” value was “low polyreactivity”.
With “QVQLVESGGGLVQAGGSLRLSCAASGRTFWSYAMGWYRQAPGKERELVATINDSDGSTYADSVKGRFTISRDNAKNTVYLQMNSLKPEDTAVYYCNAQTRAGYYFGYGYWGQGTQVTVSS” the “polyreactivity (PSR sort gate)” value was “low polyreactivity”.
For “QVQLVESGGGLVQAGGSLRLSCAASGRIFDDNTMGWSRQAPGKERELVAVITSGGSTNYADSVKGRFTISRDNAKNTVYLQMNSLKQEDTAVYYCATEPGGYRFADRPFQYGYWGQGTQVTVSS”, the “polyreactivity (PSR sort gate)” value was “low polyreactivity”.
In the case of “QVQLVESGGGLVQAGGSLRLSCAASGFTFVPYDMGWYRQAPGKERELVAAITDSSGSTHYADSVKGRFTFSRDNAKNTVYLQMNSLKPEDTAVYYCAADDSSRTTYDYWGQGTQVTVSS”, the “polyreactivity (PSR sort gate)” value is reported as “low polyreactivity”.
In the case of “QVQLVESGGGLVQAGGSLRLICAASGSIFYRNAMGWYRQAPGKERELVAVITDGGTTSYADSVKGRFTISRDNAKNTVYLQMNSLKPEDTAVYYCAADRQPVYPSLGVYWDYGHDYWGQGTQVTVSS”, the “polyreactivity (PSR sort gate)” value is reported as “low polyreactivity”.
In the case of “QVQLVESGGGLVQAGGSLRLSCAASGRTFGQNAMGWYRQAPGKERELVAAISASGSNTYYADSVKGRFTISRDNAKNTVYVQMNSLKPEDTAVYYCAKQVYRPGQQSRYDYWGQGTQVTVSS”, the “polyreactivity (PSR sort gate)” value is reported as “low polyreactivity”.
With “QVQLEESGGGLVQAGGSLRLSCAASGRTFNRYVMGWYRQAPGKERELVAAITWRGGSTYYADSVKGRFTISRDNAKTSVYLQMNSLKPEDTAVYYCAARYSGGYSVDAFDYWGQGTQVTVSS” the “polyreactivity (PSR sort gate)” value was “high polyreactivity”.
In the case of “QVQQQESGGGLVQEGGSLRLSCAASGYIFDYYYMGWYRQAPGKEREFVATISEGSTTNYADSVKGRFTTSRDNSKNTVYLQMNSLKPEDTAVYYCATDTVYGNDYWGQGTHVTVSS”, the “polyreactivity (PSR sort gate)” value is reported as “low polyreactivity”.
With “QVQLVESGGGLVQAGGSLRLSCAASGSIFFGYGMGWYRQAPGKERELVATITTSGGTYYADSVKGRFTISRDNAKNTVYLQMNSLKPEDTAVYYCAATAAALDGNTIMYYWGQGTQVTVSS” the “polyreactivity (PSR sort gate)” value was “low polyreactivity”.
